Measured values published in patent US20220169695A1 (published 2022).

Target: T1, NY-ESO-1 peptide on HLA-C*03:04 (human)
T1 peptide: LAMPFATPM
Test: multimer staining
Excerpt: FIGS. 4A-4I are graphical representations of positive staining of Jurkat 76/CD8 cells transduced with C*03:04/NY-ESO-1₉₂₋₁₀₀ TCR genes with a cognate multimer. Jurkat 76/CD8 cells transduced with the C*03:04/NY-ESO-1₉₂₋₁₀₀ TCR (FIGS. 4B, 4E, and 4H) were stained with the C*03:04/NY-ESO-1₉₂₋₁₀₀ multimer (FIG. 4B). The C*03:04/HIV gag₁₆₄₋₁₇₂ multimer (FIGS. 4D, 4E, and 4F), C*07:02/MAGE-A1₂₈₉₋₂₉₇ TCR (clone CL2; FIGS. 4C, 4F, and 4I), and an unexchanged multimer (FIGS. 4G, 4H, and 4I) were employed as controls, as well as Jurkat 76/CD8 not transduced with a TCR (FIGS. 4A, 4D, and 4G). The percentage of multimer⁺ CD8⁺ cells is shown.
T cells (1×10⁵) were incubated for 30 minutes at 37° C. in the presence of 50 nM dasatinib (LC laboratories). The cells were then washed and incubated with 5-10 μg/ml of multimer for 30 minutes at room temperature, and R-phycoerythrin-conjugated AffiniPure Fab fragment goat anti-mouse IgG1 (Jackson ImmunoResearch Laboratories) was added for 15 minutes at 4° C. Next, the cells were washed three times and costained with an anti-CD8 mAb for 15 minutes at 4° C. Dead cells were finally discriminated using the LIVE/DEAD Fixable Dead Cell Stain kit.

- binding result: recognises
B1: C*03:04/NY-ESO-1 92-100 TCR (TCR, V domains shown)
Valpha: AQSVTQPDIHITVSEGASLELRCNYSYGATPYLFWYVQSPGQGLQLLLKYFSGDTLVQGIKGFEAEFKRSQSSFNLRKPSVHWSDAAEYFCAGMDSNYQLIWGAGTKLIIKP
Vbeta: NAGVTQTPKFQVLKTGQSMTLQCAQDMNHNSMYWYRQDPGMGLRLIYYSASEGTTDKGEVPNGYNVSRLNKREFSLRLESAAPSQTSVYFCASSLPLGYEQYFGPGTRLTVT
